This note sets out measurements from publication PMC12646667, “Defective Notch1 signaling in endothelial cells drives pathogenesis in a mouse model of Adams-Oliver syndrome” (The Journal of Clinical Investigation, 2025).

Values joined by “and” are separate entries in the source; they are usually repeats but may differ in a detail not shown here. Identical values can stand only once.

As usually defined, the Kd is a measure of binding affinity in units of concentration. For orientation: stoichiometry N means the number of molecules, sites or subunits per partner or assembly.

Data set [1] addresses T1, mouse RBPJ S358R, conserved core (residues 53-474) (mouse, UniProt P31266 53-474, S358R).
T1 construct: RBPJ (Rbpj), mouse, conserved core, residues 53-474, with S358R; Variant found in human AOS patients (human S332R), put into the mouse protein by mutagenesis; also called analogous to human S332R; source: pGEX-6P-1 plasmid, QuikChange mutagenesis
In words: ITC; MicroCal VP-ITC, 25 °C, 50 mM sodium phosphate pH 6.5, 150 mM NaCl; ligand (RAM peptide or SMT3-SHARP) in the syringe, RBPJ in the cell: 100 µM into 10 µM (R91G), 50 µM into 5 µM (F92V), 40 µM into 4 µM (S358R); 20 injections of 14 µL; 1-site binding model; mean and SD of triplicates. As to conditions: both partners purified.

The target of data set [2] is T2, mouse RBPJ F92V, conserved core (residues 53-474) (mouse, UniProt P31266 53-474, F92V).
T2 construct: RBPJ (Rbpj), mouse, conserved core, residues 53-474, with F92V; Variant found in human AOS patients (human F66V), put into the mouse protein by mutagenesis; also called analogous to human F66V; source: pGEX-6P-1 plasmid, QuikChange mutagenesis
T2 sequence (P31266 53-474 F92V): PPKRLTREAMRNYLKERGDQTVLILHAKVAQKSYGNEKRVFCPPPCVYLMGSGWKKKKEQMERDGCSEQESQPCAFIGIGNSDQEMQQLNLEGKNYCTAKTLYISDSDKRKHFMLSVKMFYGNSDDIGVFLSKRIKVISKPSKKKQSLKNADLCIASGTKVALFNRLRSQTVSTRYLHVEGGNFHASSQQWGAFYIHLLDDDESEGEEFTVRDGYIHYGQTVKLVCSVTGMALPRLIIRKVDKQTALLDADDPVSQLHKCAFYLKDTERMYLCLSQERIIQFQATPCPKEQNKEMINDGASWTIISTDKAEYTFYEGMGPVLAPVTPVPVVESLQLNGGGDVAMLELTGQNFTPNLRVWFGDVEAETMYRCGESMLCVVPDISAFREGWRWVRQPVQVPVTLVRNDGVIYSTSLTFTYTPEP
Described as above. The note with it: both partners purified.

Data set [3] has as its target T3, RBPJ 53-474 (WT mouse RBPJ, conserved core) (mouse, UniProt P31266 53-474).
T3 construct: RBPJ, mouse, conserved core (NTD, BTD, linker, CTD), residues 53-474; PDB 3BRG (RBPJ on DNA) was used for modelling only; also called WT RBPJ
In words: ITC; MicroCal VP-ITC; NOTCH1 peptide or SMT3-SHARP in the syringe (40-100 uM), RBPJ in the cell (4-10 uM); 25 C (298 K); 50 mM sodium phosphate pH 6.5, 150 mM NaCl; 20 injections of 14 uL; 1-site binding model; each of three replicates printed on its own. The note with it: both partners purified.

Data set [4] addresses T4, RBPJ 53-474, S358R (mouse, UniProt P31266 53-474, S358R).
T4 construct: RBPJ, mouse, conserved core, residues 53-474, with S358R (analogous to the human AOS variant S332R); AOS-associated human variant placed in the mouse protein; also called RBPJ^S358R (human S332R)
The data set is described as above. The note with it: both partners purified.

Data set [5] deals with T5, RBPJ 53-474, F92V (mouse, UniProt P31266 53-474, F92V).
T5 construct: RBPJ, mouse, conserved core, residues 53-474, with F92V (analogous to the human AOS variant F66V); AOS-associated human variant placed in the mouse protein; also called RBPJ^F92V (human F66V)
T5 sequence (P31266 53-474 F92V): as above
The data set is described as above. As to conditions: both partners purified.

The target of data set [6] is T6, RBPJ 53-474, E89G (mouse, UniProt P31266 53-474, E89G).
T6 construct: RBPJ, mouse, conserved core, residues 53-474, with E89G (analogous to the human AOS variant E63G); AOS-associated human variant placed in the mouse protein; also called RBPJ^E89G (human E63G)
T6 sequence (P31266 53-474 E89G): as the sequence (P31266 53-474 F92V) above, with E37G, V40F counted along it
The data set is described as above. The note with it: both partners purified.

For data set [7], the target named is T7, RBPJ 53-474, K195E (mouse, UniProt P31266 53-474, K195E).
T7 construct: RBPJ, mouse, conserved core, residues 53-474, with K195E (analogous to the human AOS variant K169E); AOS-associated human variant placed in the mouse protein; also called RBPJ^K195E (human K169E)
T7 sequence (P31266 53-474 K195E): as the sequence (P31266 53-474 F92V) above, with V40F, K143E counted along it
The description is as above. The note with it: both partners purified.

The next data set concerns the target T8, RBPJ 53-474, R91G (mouse, UniProt P31266 53-474, R91G).
T8 construct: RBPJ, mouse, conserved core, residues 53-474, with R91G (analogous to the human AOS variant R65G); AOS-associated human variant placed in the mouse protein; also called RBPJ^R91G (human R65G)
The description is as above. As to conditions: both partners purified.

Data set [8] addresses T3, RBPJ 53-474 (WT mouse RBPJ, conserved …). The data set is described as above. As to conditions: both partners purified. The source holds these as a separate data set.
For data set [9], the target named is T4, RBPJ 53-474, S358R. Described as above. The note with it: both partners purified. This is another data set of the same source.
In data set [10] the target is T5, RBPJ 53-474, F92V. The description is as above. As to conditions: both partners purified. This is another data set of the same source.
In data set [11] the target is T6, RBPJ 53-474, E89G. Described as above. As to conditions: both partners purified. The source holds these as a separate data set.
The target of data set [12] is T7, RBPJ 53-474, K195E. Described as above. As to conditions: both partners purified. The source holds these as a separate data set.
Another data set has as its target RBPJ R91G (Mus musculus, UniProt P31266 53-474, R91G). Briefly: EMSA; 5, 25, 125 nM protein; ITC: 50 mM sodium phosphate pH 6.5, 150 mM NaCl, 10 C, DNA 100 uM in syringe, protein 10 uM in cell; EMSA: 20 min at room temperature, buffer as previously described (not given). As to conditions: protein: recombinant; tags: GST-fusion vector pGEX-6P-1; label: 5' IRDye-700 on bottom strand; blunt; S3 primer annealed to S2 and filled in with DNA polymerase I. A general note: Mobility shift assays separate free from complexed probe on a gel.

Data set [13] has as its target T9, mouse RBPJ R91G, conserved core (residues 53-474) (mouse, UniProt P31266 53-474, R91G).
T9 construct: RBPJ (Rbpj), mouse, conserved core, residues 53-474, with R91G; Variant found in human AOS patients (human R65G), put into the mouse protein by mutagenesis; also called analogous to human R65G; source: pGEX-6P-1 plasmid, QuikChange mutagenesis
In words: ITC; MicroCal VP-ITC, 25 °C, 50 mM sodium phosphate pH 6.5, 150 mM NaCl; ligand (RAM peptide or SMT3-SHARP) in the syringe, RBPJ in the cell: 100 µM into 10 µM (R91G), 50 µM into 5 µM (F92V), 40 µM into 4 µM (S358R); 20 injections of 14 µL; 1-site binding model; mean and SD of triplicates. The note with it: both partners purified. Background: Isothermal titration calorimetry measures the heat released or taken up as one component is titrated into another.

T3 sequence (P31266 53-474): as the sequence (P31266 53-474 F92V) above, with V40F counted along it
T4 sequence (P31266 53-474 S358R): as the sequence (P31266 53-474 F92V) above, with V40F, S306R counted along it
T8 sequence (P31266 53-474 R91G): as the sequence (P31266 53-474 F92V) above, with R39G, V40F counted along it
T1 sequence (P31266 53-474 S358R): as the sequence (P31266 53-474 F92V) above, with V40F, S306R counted along it
Sequence of RBPJ R91G (P31266 53-474 R91G): as the sequence (P31266 53-474 F92V) above, with R39G, V40F counted along it
T9 sequence (P31266 53-474 R91G): as the sequence (P31266 53-474 F92V) above, with R39G, V40F counted along it

B1: SMT3-SHARP 2776-2833, fusion protein with the region of the human SHARP co-repressor that binds RBPJ (domain or fragment, UniProt Q96T58 2776-2833, looked up)
chain: RASANENSRFHPGSMPVIDDRPADAGSGAGLRVNTSEGVVLLSYSGQKTEGPQRISAK
notes: SHARP (SPEN), human, residues 2776-2833; not shown: SMT3, N-terminal, kept
B1: the Kd is 7.9 nM in data set [1] and 10.3 nM in data set [2].

B2: SMT3-MINT 2776-2833 (human SHARP residues 2776-2833 with N-terminal SMT3 and His tag) (domain or fragment, UniProt Q96T58 2776-2833, looked up)
chain: B1 chain
notes: SHARP (MINT), human, residues 2776-2833; not shown: SMT3, N-terminal, kept
In the case of B2, the “stoichiometry N” value in data set [3] was 1.2 and 1 and 1.06; in the data set with RBPJ 53-474, S358R [4], 0.89 and 1.02 and 1.08; with RBPJ 53-474, F92V [5], 1.17 and 1.09 and 1.12; with RBPJ 53-474, E89G [6] it was 1.37 and 1.34 and 1.15; with RBPJ 53-474, K195E [7], 0.94 and 0.84 and 0.95. Moreover, the Ka with RBPJ 53-474, S358R [4] was 9.83e+07 M⁻¹ and 1.28e+08 M⁻¹ and 1.73e+08 M⁻¹; with RBPJ 53-474, F92V [5], 8.9e+07 M⁻¹ (2×) and 1.2e+08 M⁻¹. Moreover, the Kd was 10 nM and 7.8 nM and 6 nM with RBPJ 53-474, S358R [4]; 11 nM and 11.3 nM and 9 nM with RBPJ 53-474, F92V [5]; 12 nM and 35 nM and 17 nM with RBPJ 53-474, K195E [7].

B3: human NOTCH1 peptide consisting of residues 1754-1781 (peptide, UniProt P46531 1754-1781, looked up)
peptide: VLLSRKRRRQHGQLWFPEGFKVSEASKK
notes: NOTCH1, human, RAM region, residues 1754-1781; also called hN1 RAM 1754-1781; NICD1
With B3, the Ka with RBPJ 53-474, R91G is 6.04e+07 M⁻¹ and 6.65e+07 M⁻¹ and 3.08e+07 M⁻¹; in data set [8], 5e+07 M⁻¹ (2×) and 4.4e+07 M⁻¹; with RBPJ 53-474, F92V [10] it was 1.42e+08 M⁻¹ and 1.04e+08 M⁻¹ and 5.61e+07 M⁻¹; in the data set with RBPJ 53-474, E89G [11], 6.24e+07 M⁻¹ and 7.22e+07 M⁻¹ and 3.37e+07 M⁻¹; in the data set with RBPJ 53-474, K195E [12], 7.46e+07 M⁻¹ and 3.08e+07 M⁻¹ and 4.69e+07 M⁻¹. Further, the Kd is 17 nM and 15 nM and 32 nM with RBPJ 53-474, R91G; 20 nM and 22 nM in [8]; 7 nM and 10 nM and 18 nM in the data set with RBPJ 53-474, F92V [10]; 16 nM and 14 nM and 30 nM with RBPJ 53-474, E89G [11]; 13 nM and 32 nM and 21 nM with RBPJ 53-474, K195E [12]. Besides, the “stoichiometry N” value is 1.06 and 1.03 and 0.92 with RBPJ 53-474, R91G; 1.21 and 1.2 and 1.14 in data set [8]; 0.86 and 0.72 and 0.77 with RBPJ 53-474, S358R [9]; 0.85 and 0.75 and 0.63 in the data set with RBPJ 53-474, F92V [10]; 0.84 and 0.73 and 1.32 with RBPJ 53-474, E89G [11]; 1.33 and 1.2 and 1.23 with RBPJ 53-474, K195E [12].

B4: EMSA probe 1xCSL (1016ic) (dsDNA)
DNA 1: CGAACGAGGCAAACCTAGGCTAGAGGCACCGTGGGAAACTAGTGCGGGCGTGGCT
DNA 2: AGCCACGCCCGCACTAGTTTCCCACGGTGCCTCTAGCCTAGGTTTGCCTCGTTCG
For B4, the binding result with RBPJ R91G is “no binding”.

B5: RBPJ association module (RAM) domain peptide of the human Notch1 intracellular domain, residues 1754-1781 (peptide)
peptide: VLLSRKRRRQHGQLWFPEGFKVSEASKK
notes: NOTCH1, human, RAM domain of the intracellular domain, residues 1754-1781; also called NICD; NICD1; source: synthetic peptide
In the case of B5, the results for the Kd in [13], in data set [1] and in [2] were 21.4 nM, 13.3 nM and 11.5 nM, respectively.
